One test addresses human ACVR2A (human, UniProt P27037 20-135, limits assumed). Description: ELISA. Summed up:
(§1)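 Monoclonal antibodies were first applied to human or mouse ACVR2A, alongside biotinylated goat anti-human kappa light chain (positive control) and human Fc (negative control); binding was then determined by ELISA.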
For orientation: In an ELISA, binding on a coated surface is turned into a signal by an enzyme label.

The target in the next test is mouse ACVR2A (mouse, UniProt P27038 20-135, limits assumed). Description: ELISA. The method in brief: as §1
Test [1] deals with T1, biotinylated goat anti-human kappa light chain.
T1 construct: Positive control of the ELISA
Description: ELISA; positive control. Summed up:
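ELISA measured binding of ACVR2A-specific monoclonal antibodies to human and mouse ACVR2A. Biotinylated goat anti-human kappa light chain served as positive control and human Fc as negative control.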

For 17 molecules, optical density results are on record in US20210380703A1 (RIGEL PHARMACEUTICALS, published 2021).
Note: test concentration or dose not given here.

Sequence of mouse ACVR2A (P27038 20-135 limits assumed): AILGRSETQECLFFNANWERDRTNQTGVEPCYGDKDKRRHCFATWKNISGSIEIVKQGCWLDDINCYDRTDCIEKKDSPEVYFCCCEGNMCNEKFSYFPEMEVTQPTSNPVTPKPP
Sequence of human ACVR2A (P27037 20-135 limits assumed): as the sequence (P27038 20-135 limits assumed) above, with R20K, I73V counted along it

B1: 375_H12 (antibody, V domains shown)
VH: EVQLLESGGGLVQPGGSLRLSCAASGFTFSSYGMNWVRQAPGKGLEWVAGINYNGGYKGYADSVKGRFTISRDNSKNTLYLQMNSLRAEDTAVYYCARSANWHDTALDYWGQGTLVTVSS
VL: DIQMTQSPSSLSASVGDRVTITCRASQSILTYLNWYQQKPGKAPKLLIYYVTNRQSGVPSRFSGSGSGTDFTLTISSLQPEDFATYYCQQSYSIPLTFGGGTKVEIK
notes: VH/VL only
In the case of B1, the optical density is 3.26 OD with human ACVR2A, 3.1 OD with mouse ACVR2A and 3.26 OD in test [1].

B2: 376_C02 (antibody, V domains shown)
VH: EVQLLESGGGLVQPGGSLRLSCAASGFTFDSYGMNWVRQAPGKGLEWVSGINYNSGYTSYADSVKGRFTISRDNSKNTLYLQMNSLRAEDTAVYYCARSANWHDTALDYWGQGTLVTVSS
VL: DIQMTQSPSSLSASVGDRVTITCRASQSIVSYLNWYQQKPGKAPKLVIYAVTSRASGVPSRFSGSGSGTDFTLTISSLQPEDFATYYCQQSYDSPLTFGGGTKVEIK
notes: VH/VL only
B2: the optical density with human ACVR2A turned out to be 3.44 OD; with mouse ACVR2A it was 3.53 OD; in test [1], 3.44 OD.

B3: 376_A10 (antibody, V domains shown)
VH: EVQLLESGGGLVQPGGSLRLSCAASGFTFSDYGMNWVRQAPGKGLEWVSNINYNSGYKGYADSVKGRFTISRDNSKNTLYLQMNSLRAEDTAVYYCARSANWHDTALDYWGQGTLVTVSS
VL: DIQMTQSPSSLSASVGDRVTITCRASQSILSYLNWYQQKPGKAPKLLIYAATSRASGVPSRFSGSGSGTDFTLTISSLQPEDFATYYCQQSYESPLTFGGGTKVEIK
notes: VH/VL only
In the case of B3, the optical density worked out at 3.68 OD with human ACVR2A, 3.64 OD with mouse ACVR2A and 3.17 OD in test [1].

B4: 376_B06 (antibody, V domains shown)
VH: EVQLLESGGGLVQPGGSLRLSCAASGFTFSSYSMNWVRQAPGKGLEWVAGINYNSGYKGYADSVKGRFTISRDNSKNTLYLQMNSLRAEDTAVYYCARSATWHDTHLDYWGQGTLVTVSS
VL: DIQMTQSPSSLSASVGDRVTITCRASQSILTYLNWYQQKPGKAPKLLIYAATSRASGVPSRFSGSGSGTDFTLTISSLQPEDFATYYCQQSYDLPLTFGGGTKVEIK
notes: VH/VL only
Turning to B4, the optical density with human ACVR2A turned out to be 3.7 OD; with mouse ACVR2A it was 3.77 OD; in test [1], 3.46 OD.

B5: 376_B05 (antibody, V domains shown)
VH: EVQLLESGGGLVQPGGSLRLSCAASGFTFSSYSMNWVRQAPGKGLEWVANINYNGGYTGYADSVKGRFTISRDNSKNTLYLQMNSLRAEDTAVYYCARSANWHDTALDYWGQGTLVTVSS
VL: DIQMTQSPSSLSASVGDRVTITCRASQSIISYVNWYQQKPGKAPKLLIYAATSRASGVPSRFSGSGSGTDFTLTISSLQPEDFATYYCQQSYELPLTFGGGTKVEIK
notes: VH/VL only
As to B5, the optical density in the test with human ACVR2A was determined as 3.65 OD; in the test with mouse ACVR2A, 3.78 OD; in test [1] it was 3.52 OD.

B6: 376_A06 (antibody, V domains shown)
VH: EVQLLESGGGLVQPGGSLRLSCAASGFTFDSYSMNWVRQAPGKGLEWVSGINYNSGYTSYADSVKGRFTISRDNSKNTLYLQMNSLRAEDTAVYYCARSATWHDTALDYWGQGTLVTVSS
VL: DIQMTQSPSSLSASVGDRVTITCRASQSILSYLNWYQQKPGKAPKLVIYYVSNRASGVPSRFSGSGSGTDFTLTISSLQPEDFATYYCQQSYDNPLTFGGGTKVEIK
notes: VH/VL only
For the molecule B6, the optical density with human ACVR2A came to 3.69 OD; with mouse ACVR2A, 3.74 OD; in test [1], 3.16 OD.

B7: 376_B11 (antibody, V domains shown)
VH: EVQLLESGGGLVQPGGSLRLSCAASGFTFSSYSMNWVRQAPGKGLEWVSGINYNGGYTSYADSVKGRFTISRDNSKNTLYLQMNSLRAEDTAVYYCARSANWHDTALDYWGQGTLVTVSS
VL: DIQMTQSPSSLSASVGDRVTITCRASQSILSYVNWYQQKPGKAPKLVIYAATSRASGVPSRFSGSGSGTDFTLTISSLQPEDFATYYCQQSYDLPLTFGGGTKVEIK
notes: VH/VL only
For B7, the optical density with human ACVR2A turned out to be 3.69 OD; with mouse ACVR2A, 3.75 OD; in test [1], 3.61 OD.

B8: 376_C01 (antibody, V domains shown)
VH: EVQLLESGGGLVQPGGSLRLSCAASGFTFDSYSMNWVRQAPGKGLEWVAGINYNGGYTSYADSVKGRFTISRDNSKNTLYLQMNSLRAEDTAVYYCARSANWHDTALDYWGQGTLVTVSS
VL: DIQMTQSPSSLSASVGDRVTITCRASQSILTYLNWYQQKPGKAPKLLIYAATSLASGVPSRFSGSGSGTDFTLTISSLQPEDFATYYCQQSYDNPLTFGGGTKVEIK
notes: VH/VL only
With B8, the results for the optical density (with human ACVR2A; with mouse ACVR2A; in test [1]) were 3.26 OD, 3.6 OD and 3.2 OD, respectively.

B9: 376_A12 (antibody, V domains shown)
VH: EVQLLESGGGLVQPGGSLRLSCAASGFTFSSYSMNWVRQAPGKGLEWVANINYNSGYKGYADSVKGRFTISRDNSKNTLYLQMNSLRAEDTAVYYCARSANWHDTALDYWGQGTLVTVSS
VL: DIQMTQSPSSLSASVGDRVTITCRASQSILSYVNWYQQKPGKAPKLVIYAATSRASGVPSRFSGSGSGTDFTLTISSLQPEDFATYYCQQSYDTPLTFGGGTKVEIK
notes: VH/VL only
As for B9, the optical density worked out at 3.7 OD with human ACVR2A, 3.34 OD in the test with mouse ACVR2A and 3.22 OD in test [1].

B10: 376_B04 (antibody, V domains shown)
VH: EVQLLESGGGLVQPGGSLRLSCAASGFTFDSYGMHWVRQAPGKGLEWVASINYNGGYTGYADSVKGRFTISRDNSKNTLYLQMNSLRAEDTAVYYCARSANWHDTALDYWGQGTLVTVSS
VL: DIQMTQSPSSLSASVGDRVTITCRASQSIVSYVNWYQQKPGKAPKLVIYAATSRASGVPSRFSGSGSGTDFTLTISSLQPEDFATYYCQQSYDTPLTFGGGTKVEIK
notes: VH/VL only
For B10, the optical density turned out to be 3.41 OD in the test with human ACVR2A, 3.48 OD with mouse ACVR2A and 3.58 OD in test [1].

B11: 376_C11 (antibody, V domains shown)
VH: EVQLLESGGGLVQPGGSLRLSCAASGFTFDSYSMNWVRQAPGKGLEWVAGINYNSGYKSYADSVKGRFTISRDNSKNTLYLQMNSLRAEDTAVYYCARSATWHDTHLDYWGQGTLVTVSS
VL: DIQMTQSPSSLSASVGDRVTITCRASQSILTYLNWYQQKPGKAPKLVIYAATSRASGVPSRFSGSGSGTDFTLTISSLQPEDFATYYCQQSYDNPLTFGGGTKVEIK
notes: VH/VL only
As for B11, the optical density was 3.7 OD with human ACVR2A, 3.63 OD in the test with mouse ACVR2A and 3.46 OD in test [1].

B12: 376_B09 (antibody, V domains shown)
VH: EVQLLESGGGLVQPGGSLRLSCAASGFTFDSYSMNWVRQAPGKGLEWVANINYNSGYKGYADSVKGRFTISRDNSKNTLYLQMNSLRAEDTAVYYCARSANWHDTALDYWGQGTLVTVSS
VL: DIQMTQSPSSLSASVGDRVTITCRASQSILTYVNWYQQKPGKAPKLVIYAATSRASGVPSRFSGSGSGTDFTLTISSLQPEDFATYYCQQSYDLPLTFGGGTKVEIK
notes: VH/VL only
For the molecule B12, the optical density is 3.78 OD in the test with human ACVR2A, 3.72 OD with mouse ACVR2A and 3.51 OD in test [1].

B13: 376_A04 (antibody, V domains shown)
VH: EVQLLESGGGLVQPGGSLRLSCAASGFTFDSYSMNWVRQAPGKGLEWVSNINYNGGYTSYADSVKGRFTISRDNSKNTLYLQMNSLRAEDTAVYYCARSANWHDTALDYWGQGTLVTVSS
VL: DIQMTQSPSSLSASVGDRVTITCRASQSIVTYLNWYQQKPGKAPKLVIYAATSRASGVPSRFSGSGSGTDFTLTISSLQPEDFATYYCQQSYDSPLTFGGGTKVEIK
notes: VH/VL only
B13: the optical density with human ACVR2A was 3.59 OD; in the test with mouse ACVR2A, 3.58 OD; in test [1], 3.12 OD.

B14: 376_B07 (antibody, V domains shown)
VH: EVQLLESGGGLVQPGGSLRLSCAASGFTFDSYSMNWVRQAPGKGLEWVSGINYNSGYTSYADSVKGRFTISRDNSKNTLYLQMNSLRAEDTAVYYCARSATWHDTALDYWGQGTLVTVSS
VL: DIQMTQSPSSLSASVGDRVTITCRASQSILSYLNWYQQKPGKAPKLVIYYVSNRASGVPSRFSGSGSGTDFTLTISSLQPEDFATYYCQQSYDNPLTFGGGTKVEIK
notes: VH/VL only
Regarding B14, the optical density was found to be 3.73 OD in the test with human ACVR2A, 3.71 OD with mouse ACVR2A and 3.53 OD in test [1].

B15: 376_C06 (antibody, V domains shown)
VH: EVQLLESGGGLVQPGGSLRLSCAASGFTFSSYGMNWVRQAPGKGLEWVAGINYNGGYTSYADSVKGRFTISRDNSKNTLYLQMNSLRAEDTAVYYCARSATWHDTALDYWGQGTLVTVSS
VL: DIQMTQSPSSLSASVGDRVTITCRASQSILSYLNWYQQKPGKAPKLVIYAATSRASGVPSRFSGSGSGTDFTLTISSLQPEDFATYYCQQSYDSPLTFGGGTKVEIK
notes: VH/VL only
On to B15, for which the optical density worked out at 3.49 OD with human ACVR2A, 3.56 OD with mouse ACVR2A and 3.43 OD in test [1].

B16: 376_C12 (antibody, V domains shown)
VH: EVQLLESGGGLVQPGGSLRLSCAASGFTFSSYSMNWVRQAPGKGLEWVAGINYNGGYTGYADSVKGRFTISRDNSKNTLYLQMNSLRAEDTAVYYCARSANWHDTALDYWGQGTLVTVSS
VL: DIQMTQSPSSLSASVGDRVTITCRASQSILTYVNWYQQKPGKAPKLLIYAATSRASGVPSRFSGSGSGTDFTLTISSLQPEDFATYYCQQSYDSPLTFGGGTKVEIK
notes: VH/VL only
Regarding B16, the figures for the optical density (in the test with human ACVR2A; in the test with mouse ACVR2A; in test [1]) were 3.7 OD, 3.32 OD and 3.39 OD, respectively.

B17: 376_B01 (antibody, V domains shown)
VH: EVQLLESGGGLVQPGGSLRLSCAASGFTFDSYSMNWVRQAPGKGLEWVAGINYNGGYTSYADSVKGRFTISRDNSKNTLYLQMNSLRAEDTAVYYCARSATWHDTHLDYWGQGTLVTVSS
VL: DIQMTQSPSSLSASVGDRVTITCRASQSILTYVNWYQQKPGKAPKLVIYAATSRASGVPSRFSGSGSGTDFTLTISSLQPEDFATYYCQQSYNLPLTFGGGTKVEIK
notes: VH/VL only
As to B17, the optical density was determined as 3.28 OD with human ACVR2A, 3.67 OD with mouse ACVR2A and 3.24 OD in test [1].
